Experiment: In vitro H2O hydrolysis and oxygen evolution catalyzed by LEAT protein under light
Type: biochemical
Design: key to O2 evolution activity: +: similar O2 evolution activity as that of YFP; ++: higher O2 evolution activity than that of YFP by at least one order of magnitude; weak: lower activity than that of YFP by at least one order of magnitude
Conditions: water hydrolysis and O2 evolution under light, relative to YFP
Method: 1.85 ml of 50 mM phosphate buffer (pH6.5) was added in the reaction vessel of Clark-type oxygen electrode, then LEAT proteins (at a final concentration of 0.02-1 μg/ml) and 400 μM 2,3,5-trimethyl-1,4-benzoquinone (TMBQ) or other quinones were sequentially added into the buffer in dark. The oxygen evolution rate was measured under the light with corresponding excitation wave length for LEAT proteins and light intensity at 1-2 μmol m^−2 s^−1.

| Molecule | O2 evolution activity |
| --- | --- |
| scubGFP: green fluorescent protein from Scolymia cubensis (AY037767), SEQ ID NO: 40 (protein, listed as Echinopora forskaliana) MQRAGMKVKEHMKIKLRMGGTVNGKHFAVNGTGDGYPYQGKQILKLIVEGSEPLPFAFDILSAAFQYGNRAFTEYPTEIADYFKQSFEFGEGFSWERSFTFEDGAICVATNDITMVGGEFQYDIRFDGLNFPEDGPVMQKKTVKWEPSTEIMYMQNGVLKGEVNMALLLQDKSHYRCDLKTTYKAKNNVPHPPGYHYVDHCIEILEERKDHVKLREHAKARSSLSPTSAKERKA | + |
| rmueGFP: green fluorescent protein from Renilla muelleri (AY015996), SEQ ID NO: 44 (protein, listed as Renilla muelleri) MSKQILKNTCLQEVMSYKVNLEGIVNNHVFTMEGCGKGNILFGNQLVQIRVTKGAPLPFAFDIVSPAFQYGNRTFTKYPNDISDYFIQSFPAGFMYERTLRYEDGGLVEIRSDINLIEDKFVYRVEYKGSNFPDDGPVMQKTILGIEPSFEAMYMNNGVLVGEVILVYKLNSGKYYSCHMKTLMKSKGVVKEFPSYHFIQHRLEKTYVEDGGFVEQHETAIAQMTSIGKPLGSLHEWV | ++ |
| efofCP/RFP: protein from Echinopora forskaliana (EU498726), SEQ ID NO: 34 (protein, listed as Echinopora forskaliana) MSVIKQVMKTKLHLEGTVNGHDFTIEGKGEGKPYEGLQHMKMTVTKGAPLPFSVHILTPSHMYGSKPFNKYPADIPDYHKQSFPEGMSWERSMIFEDGGVCTASNHSSINLQENCFIYDVKFHGVNLPPDGPVMQKTIAGWEPSVETLYVRDGMLKSDTAMVFKLKGGGHHRVDFKTTYKAKKPVKLPEFHFVEHRLELTKHDKDFTTWDQQEAAEGHFSPLPKALP | + |
| hcriCP: chromoprotein from Heteractis crispa (AF363776), SEQ ID NO: 32 (protein, Entacmaea quadricolor) MAGLLKESMRIKMYMEGTVNGHYFKCEGEGDGNPFTGTQSMRIHVTEGAPLPFAFDILAPCCEYGSRTFVHHTAEIPDFFKQSFPEGFTWERTTTYEDGGILTAHQDTSLEGNCLIYKVKVLGTNFPADGPVMKNKSGGWEPCTEVVYPENGVLCGRNVMALKVGDRRLICHLYTSYRSKKAVRALTMPGFHFTDIRLQMPRKKKDEYFELYEASVARYSDLPEKAN | + |
| efasCFP: cyan fluorescent protein from Eusmilia fastigiata (DQ206397), SEQ ID NO: 36 (protein, listed as Echinopora forskaliana) MSFSKQVLNDVTMTYFMEGSVNGHDFTIEGEGTGKPYEGHQRFNLRVTKGAPLPFAVDILSAAFAYGNRCFTKYPKEIPDFFKQSLPEDMSWERTMTFEDGGIVAISAHIRLIGNRFEHKSKFVGVNFPADGPVMQRKTLGWEPSSEKMTPRDGILKGYVPSFLVLQGGGNYRCDYDTSYRAMKPVEMPGGHFIQHRIVRRDIKKDSNGNTWQIQEDAFAHNSEVPDSA | + |
| phiYFP: yellow fluorescent protein from Phialidium sp. SL-2003 (AY485333), SEQ ID NO: 50 (protein, Aequorea Victoria) MSSGALLFHGKIPYVVEMEGNVDGHTFSIRGKGYGDASVGKVDAQFICTTGDVPVPWSTLVTTLTYGAQCFAKYGPELKDFYKSCMPEGYVQERTITFEGDGVFKTRAEVTFENGSVYNRVKLNGQGFKKDGHVLGKNLEFNFTPHCLYIWGDQANHGLKSAFKIMHEITGSKEDFIVADHTQMNTPIGGGPVHVPEYHHITYHVTLSKDVTDHRDNMSLVETVRAVDCRKTYL | ++ |
| anm2CP: chromoprotein from Anthomedusae sp. SL-2003 (AY485336), SEQ ID NO: 48 (protein, listed as Anthomedusae sp.) MEGGPALFQSDMTFKIFIDGVVNDQKFTIIADGSSKFPHGDFNVHAVCETGKLPMSWKPICHLIQYGEPFFAKYPNGISHFAQECFPEGLTIDRTVRFENDGTMTSHHTYELDGTCVISRITVNCDGFQPDGPIMKDQLVDILPTETHMFPHGSNAVRQLCYIGFTTADGGLMMSHFDSKLTFNGSRAIKIPGPHFVTVIIKQMKDTSDKRDHVCQREVTYAHSVPRITSAI | + |
| spisCP: non-fluorescent chromoprotein from Stylophora pistillata (DQ206398), SEQ ID NO: 38 (protein, listed as Echinopora forskaliana) MSHSKQALADTMKMTWLMEGSVNGHAFTIEGEGTGKPYEGKQSGTFRVTKGGPLPFAFDIVAPTLKYGFKCFMKYPADIPDYFKLAFPEGLTYDRKIAFEDGGCATATVEMSLKGNTLVHKTNFQGGNFPIDGPVMQKRTLGWEPTSEKMTPCDGIIKGDTIMYLMVEGGKTLKCRYENNYRANKPVLMPPSHFVDLRLTRTNLDKEGLAFKLEEYAVARVLEV | ++ |
| rfloRFP: red fluorescent protein from Ricordea florida (AY037773), SEQ ID NO: 42 (protein, listed as Ricordea florida) MSALKEEMKIKLTLVGVVNGHPFKIIGDGKGKPYEGSQELTLAVVEGGPLPFSYDILTTIVHYGNRAFVNYPKDIPDIFKQTCSGPGAGYSWQRTMSFEDGGVCTATSHIRVDGDTFNYDIHFMGADFPLNGPVMQKRTVKWEPSTEIMFQCDGLLRGDVAMSLLLKGGGHYRCDFKTIYKPKKNVKMPGYHFVDHCIEITSQQDDYNVVELYEGAVAHYSPLQKPCQAKA | ++ |
| cpGFP: green fluorescent protein from Chiridius poppei (AB185173), SEQ ID NO: 52 (protein, listed as Chiridius poppei) MTTFKIESRIHGNLNGEKFELVGGGVGEEGRLEIEMKTKDKPLAFSPFLLSHCMGYGFYHFASFPKGTKNIYLHAATNGGYTNTRKEIYEDGGILEVNFRYTYEFNKIIGDVECIGHGFPSQSPIFKDTIVKSCPTVDLMLPMSGNIIASSYARAFQLKDGSFYTAEVKNNIDFKNPIHESFSKSGPMFTHRRVEETHTKENLAMVEYQQVFNSAPRDM | + |
| ceriantRFP: red fluorescent protein from Cerianthus sp. DW-2003 (AY296063), SEQ ID NO: 46 (protein, listed as Cerianthus sp.) MNLSKNVSVSVYMKGNVNNHEFEYDGEGGGDPYTGKYSMKMTLRGQNCLPFSYDIITTAFQYGFRVFTKYPEGIVDYFKDSLPDAFQWNRRIVFEDGGVLNMSSDITYKDNVLHGDVWAVGVNFPPNGPVMKNEIVMEEPTEETFTPKNGVLVGFCPKAYLLKDGSYYYGNMTTFYRSKKSGQAPPGYHFVKHRLVKTNVGHGFKTVEQTEYATAHVSDLPK | ++ |
